Series [1] concerns the target PDGF-AA (human, UniProt P04085 87-211). The series can be described thus: SPR; 10 mM Tris-HCl, 150 mM NaCl, 5 mM KCl, pH 7.4; EMSA room temperature 30 min, 12% PAGE in TBE; SPR 25 C (RB1 SPR with 650 mM NaCl). Particulars: protein: recombinant, chain copies: 2. For orientation: In SPR one partner is held on a chip, and binding of the other changes the refractive index at the surface.

Series [2] deals with c-KIT intracellular domain (human, UniProt P10721 544-976). The series can be described thus: EMSA; 10 mM Tris-HCl, 150 mM NaCl, 5 mM KCl, pH 7.4; EMSA room temperature 30 min, 12% PAGE in TBE; SPR 25 C (RB1 SPR with 650 mM NaCl). Particulars: protein: recombinant; label: 5'-FITC; G4.
c-KIT intracellular domain, sequence (P10721 544-976): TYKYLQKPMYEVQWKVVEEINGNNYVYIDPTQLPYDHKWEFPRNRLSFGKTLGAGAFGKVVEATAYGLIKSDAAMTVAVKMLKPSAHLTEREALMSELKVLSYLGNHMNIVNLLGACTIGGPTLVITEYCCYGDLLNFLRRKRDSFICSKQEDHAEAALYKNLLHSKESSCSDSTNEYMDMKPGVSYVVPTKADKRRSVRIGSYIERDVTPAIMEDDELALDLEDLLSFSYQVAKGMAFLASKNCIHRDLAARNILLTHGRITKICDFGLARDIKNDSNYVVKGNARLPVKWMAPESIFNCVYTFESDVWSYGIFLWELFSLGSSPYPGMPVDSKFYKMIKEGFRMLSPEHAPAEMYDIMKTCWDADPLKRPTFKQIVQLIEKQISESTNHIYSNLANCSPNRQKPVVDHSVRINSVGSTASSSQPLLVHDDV
Series [3] deals with VEGF165, human (Homo sapiens (Human), UniProt P15692 27-191). Briefly: SPR; 10 mM Tris-HCl pH 7.4, 150 mM NaCl, 5 mM KCl, 25 C; protein amine-coupled on CM5. Particulars: chain copies: 2.
VEGF165, human, sequence (P15692 other isoform, or with tags, fused parts or gaps): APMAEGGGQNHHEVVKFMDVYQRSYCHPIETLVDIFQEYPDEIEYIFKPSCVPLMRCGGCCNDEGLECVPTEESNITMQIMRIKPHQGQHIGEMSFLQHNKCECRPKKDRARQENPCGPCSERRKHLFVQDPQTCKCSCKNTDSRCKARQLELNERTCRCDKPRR
The target of series [4] is PDGF-AA, human (Homo sapiens (Human), UniProt P04085 87-211). Described as above. Particulars: chain copies: 2.
Series [5] deals with T1, RB1, human (Homo sapiens (Human), UniProt P06400).
T1 sequence: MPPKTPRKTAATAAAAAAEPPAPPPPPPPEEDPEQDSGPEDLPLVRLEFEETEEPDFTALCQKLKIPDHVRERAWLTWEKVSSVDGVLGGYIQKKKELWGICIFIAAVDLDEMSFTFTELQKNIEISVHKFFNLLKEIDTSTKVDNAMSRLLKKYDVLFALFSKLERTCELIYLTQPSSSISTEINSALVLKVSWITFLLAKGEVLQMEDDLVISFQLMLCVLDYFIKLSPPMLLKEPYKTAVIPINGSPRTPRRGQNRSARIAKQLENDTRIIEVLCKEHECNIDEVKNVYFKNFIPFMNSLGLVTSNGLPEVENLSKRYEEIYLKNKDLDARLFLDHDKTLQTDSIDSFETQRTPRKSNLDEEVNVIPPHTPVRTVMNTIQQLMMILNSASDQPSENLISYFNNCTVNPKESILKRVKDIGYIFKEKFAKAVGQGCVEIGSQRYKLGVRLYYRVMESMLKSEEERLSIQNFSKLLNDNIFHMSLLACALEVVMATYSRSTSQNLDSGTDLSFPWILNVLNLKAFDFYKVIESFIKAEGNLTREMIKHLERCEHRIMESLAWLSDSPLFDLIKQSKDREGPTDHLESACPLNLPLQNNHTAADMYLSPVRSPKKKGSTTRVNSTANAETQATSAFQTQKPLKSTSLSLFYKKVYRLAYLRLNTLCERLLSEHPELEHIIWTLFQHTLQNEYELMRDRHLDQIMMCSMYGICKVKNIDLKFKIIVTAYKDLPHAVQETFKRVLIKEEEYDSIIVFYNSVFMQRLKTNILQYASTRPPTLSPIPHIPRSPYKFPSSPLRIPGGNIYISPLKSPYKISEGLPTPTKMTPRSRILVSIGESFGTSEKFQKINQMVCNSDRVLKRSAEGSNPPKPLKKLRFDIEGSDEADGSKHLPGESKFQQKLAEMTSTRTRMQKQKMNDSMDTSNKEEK
The series can be described thus: SPR; 10 mM Tris-HCl pH 7.4, 650 mM NaCl, 5 mM KCl, 25 C; DNA on SA chip, Scatchard. The following applies: label: 5'-biotin.

Series [6] has as its target VEGF121, human (Homo sapiens (Human), UniProt P15692 27-147). Briefly: EMSA; 2.6 uM VEGF121. The following applies: chain copies: 2. For orientation: Mobility shift assays separate free from complexed probe on a gel.
Series [7] deals with VEGF165 (human, UniProt P15692-4 27-191). The series can be described thus: SPR; 10 mM Tris-HCl, 150 mM NaCl, 5 mM KCl, pH 7.4; EMSA room temperature 30 min, 12% PAGE in TBE; SPR 25 C (RB1 SPR with 650 mM NaCl). Particulars: protein: recombinant, chain copies: 2.
Series [8] concerns the target VEGF121 (human, UniProt P15692-9 27-147). The series can be described thus: EMSA; 10 mM Tris-HCl, 150 mM NaCl, 5 mM KCl, pH 7.4; EMSA room temperature 30 min, 12% PAGE in TBE; SPR 25 C (RB1 SPR with 650 mM NaCl). Particulars: protein: recombinant, chain copies: 2.
Setting [9] is: label: none (SPR), not expected to form G4.
Where [10] appears, read: label: 5'-TAMRA (gel shift), parallel G4, monomeric and multimeric bands.
[11] abbreviates: label: 5'-TAMRA (gel shift), 5'-biotin (SPR to RB1), antiparallel G4.
Setting [12] is: label: 5'-FITC (gel shift), none (SPR), parallel G4.

As a reminder, the Kd is the free concentration of one partner at which half of the binding sites on the other are occupied at equilibrium, for simple one-to-one binding.

VEGF121, sequence (P15692 other isoform, or with tags, fused parts or gaps): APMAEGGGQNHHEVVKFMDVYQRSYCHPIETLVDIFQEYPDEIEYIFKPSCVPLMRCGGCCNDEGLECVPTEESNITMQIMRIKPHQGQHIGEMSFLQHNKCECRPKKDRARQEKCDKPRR

Turning to GGAGGCTTTTTTTTTTTTTCTTTTTCTTTTTCTTTTTATTTTCGCGGC (ssDNA) [PDGFA G4 Mut.], the binding result in series [1] (setting [9]) is listed as “no binding”.

For the molecule AGGGAGGGCGCTGGGAGGAGGG (structured_DNA) [c-KIT G4-2], the binding result in series [2] is recorded as “no binding”. On to GGTTGGTGTGGTTGG (structured_DNA, G-quadruplex) [TBA], for which the binding result in series [3] and in series [4] was “no binding” throughout. For the molecule CGTTTTGTTTTGGGCGGC (ssDNA) [RB1 G4 mutant], the binding result in series [5] is listed as “no binding”.

In the case of CGGGGGGTTTTGGGCGGC (structured_DNA, G-quadruplex (promoter-derived)), the binding result in series [6] (label: TAMRA) and in series [4] was “no binding” in each case. This molecule also came in with a Kd in series [3] of 300 nM. As for GTTTCTTTCCGGTTTCGTTTTCCCGGCGGGGCGG (ssDNA) [VEGFA G4 Mut.], the binding result in series [7] (setting [9]) is recorded as “no binding”. Regarding CGGGCGGGCGCGAGGGAGGGG (structured_DNA) [c-KIT G4-1], in series [2], the binding result is on record as “no binding”. GGAGGCGGGGGGGGGGGGGCGGGGGCGGGGGCGGGGGAGGGGCGCGGC (structured_DNA): the binding result in series [8] (setting [10]) is on record as “no binding”. The dissociation constant (Kd) in series [7] (setting [10]) came to 10 nM. For GGAGGCGGGGGGGGGGGGGCGGGGGCGGGGGCGGGGGAGGGGCGCGGC (structured_DNA, G-quadruplex (promoter-derived)), the binding result in series [6] (label: TAMRA) is “no binding”. Also, binding in series [3] was characterised by a dissociation constant (Kd) of 10 nM. CGGGGGGTTTTGGGCGGC (structured_DNA): the binding result in series [8] (setting [11]) and in series [1] (setting [11]) was “no binding” in each case. Moreover, the equilibrium dissociation constant (Kd) in series [7] (setting [11]) was 300 nM. For GGGGCGGGCCGGGGGCGGGGTCCCGGCGGGGCGG (structured_DNA), the binding result in series [8] (setting [12]) and in series [1] (setting [12]) was “no binding” each time. Further, the Kd in series [7] (setting [12]) was 170 nM.

For the molecule GGGGCGGGCCGGGGGCGGGGTCCCGGCGGGGCGG (structured_DNA, G-quadruplex (promoter-derived)), the binding result in series [6] (label: FITC) and in series [4] was “no binding” each time.

Regarding GGTTGGTGTGGTTGG (structured_DNA) [TBA (15-mer thrombin-binding aptamer)], the binding result in series [7] (label: none, G4) is listed as “no binding”; in series [1] (label: none, G4) it was “no binding”.

The values are drawn from paper PMC3672139, “Aptamer Selection Based on G4-Forming Promoter Region”.
